The source of these data is patent US20240199740A1 (Ablynx, published 2024).

The target of test [1] is T1, human CD123 expressed on cells (human, UniProt P26951 19-378). Kind of test: cell-based or functional assay.
For test [2], the target named is T2, recombinant human CD123 protein (R&D Systems, 301-R3/CF) (human, UniProt P26951 19-305).
T2 construct: Bought recombinant His-tagged extracellular domain of human CD123; also called recombinant CD123; in house biotinylated-CD123 recombinant protein; not shown: His tag of the bought protein
T2 sequence: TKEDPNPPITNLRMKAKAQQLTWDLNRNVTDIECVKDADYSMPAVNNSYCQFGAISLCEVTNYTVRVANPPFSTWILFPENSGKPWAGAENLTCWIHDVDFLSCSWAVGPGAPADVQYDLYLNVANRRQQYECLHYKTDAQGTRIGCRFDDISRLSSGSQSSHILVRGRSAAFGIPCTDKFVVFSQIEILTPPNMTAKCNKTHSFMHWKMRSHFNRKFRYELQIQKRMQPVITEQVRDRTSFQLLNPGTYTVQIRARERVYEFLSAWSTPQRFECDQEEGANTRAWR
The test can be described thus: SPR (ProteOn XPR36), CD123 immobilized.

Test [3] has as its target T1, human CD123 expressed on cells. The test can be described thus: cell-based or functional assay. This is another data set of the same source.
Test [4] deals with cynomolgus TCR/CD3 expressed on cells (cynomolgus). Kind of test: cell-based or functional assay.
For test [5], the target named is T2, recombinant human CD123 protein (R&D …). Kind of test: SPR (ProteOn XPR36), CD123 immobilized; values only indicative (incomplete regeneration).
Test [6] deals with T1, human CD123 expressed on cells. Kind of test: flow cytometry competition, MOLM-13 cells, competitor A0110056A10-Alexa647 (0.4 nM).
For test [7], the target named is T3, cynomolgus CD123 expressed on HEK Flp-In cells (cynomolgus).
T3 construct: EHH61867.1; also called cyCD123; cyno CD123
T3 chain: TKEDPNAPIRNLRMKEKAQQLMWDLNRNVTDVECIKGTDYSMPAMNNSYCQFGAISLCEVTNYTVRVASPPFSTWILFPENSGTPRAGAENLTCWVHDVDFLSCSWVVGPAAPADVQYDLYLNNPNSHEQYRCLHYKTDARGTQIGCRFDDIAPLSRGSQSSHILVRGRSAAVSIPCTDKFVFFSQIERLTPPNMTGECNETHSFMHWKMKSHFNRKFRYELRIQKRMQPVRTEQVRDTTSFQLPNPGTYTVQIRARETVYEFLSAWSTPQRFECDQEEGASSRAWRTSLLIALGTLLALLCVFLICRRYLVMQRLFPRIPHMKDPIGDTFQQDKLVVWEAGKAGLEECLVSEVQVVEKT
The test can be described thus: flow cytometry competition, HEK Flp-In cyCD123 cells, competitor A0110056A10-Alexa647 (0.9 nM). (In general: A flow cytometer gives signals particle by particle.)

Test [8] concerns the target T1, human CD123 expressed on cells. The test can be described thus: flow cytometry competition, CHO Flp-In huCD123 cells, competitor A0110056A10-Alexa647 (0.9 nM).
Test [9] concerns the target human CD123 (human, UniProt P26951 19-378). The test can be described thus: cell-based or functional assay.
The target of test [10] is T1, human CD123 expressed on cells. Kind of test: cell-based or functional assay. This is another data set of the same source.

The term Kd denotes the constant that tells how readily two partners part at equilibrium. As usually defined, the koff is the first-order rate constant of dissociation. As a reminder, the kon is the rate constant with which the complex forms. Broadly, the IC50 is the concentration that gives 50% inhibition. Low values mean inhibition by little substance, high ones a need for much substance.

B1: T017000114 (bispecific antibody)
chain: EVQLVESGGGLVQAGGPLRLSCAASGRTFSSYVMGWFRQAPGKEREFVAAIYWSNGKTQYTDSVKGRFTISGDNAKNTVYLQMNSLNPEDTAVYYCVADKDETGFRTLPIAYDYWGQGTLVTVSSGGGGSGGGGSGGGGSGGGGSGGGGSGGGGSGGGGSEVQLVESGGGLVQAGGSLRLSCAASGITSKINDMGWYRQTPGNYREWVASITATGTTNYRDSVKGRFTISRDNAKSTVYLQMNSLKPEDTTVYYCNTFPPISNFWGQGTLVTVSSGGGGSGGGGSGGGGSGGGGSGGGGSGGGGSGGGGSEVQLVESGGGLVQPGGSLRLSCVASGDVHKINFLGWYRQAPGKEREKVAHISIGDQTDYADSAKGRFTISRDESKNMVYLQMNSLKPEDTAVYFCRAFSRIYPYDYWGQGTLVTVSS
notes: Multispecific Nanobody polypeptide expressed in Pichia; also called A0110055F03-35GS-A0110056A10-35GS-T0170056G05-FLAG3-HIS6; not shown: C-terminal FLAG3-HIS6 tag
On to B1, for which, in [1], the “% lysis, killing of MOLM-13 cells by non-activated human T cells, E:T ratio 2:1” value came out at 10%; the “% lysis, killing of MOLM-13 cells by non-activated human T cells, E:T ratio 8:1” value turned out to be 12%; the “% lysis, killing of MOLM-13 cells by pre-activated human T cells, E:T ratio 1:2” value amounted to 18%; the “% lysis, killing of MOLM-13 cells by pre-activated human T cells, E:T ratio 2:1” value worked out at 31%. Also, in test [1], the “% lysis, killing of MOLM-13 cells by pre-activated human T cells, E:T ratio 8:1” value came out at 43%; the “EC50 (M), killing of MOLM-13 cells by non-activated human T cells, E:T ratio 2:1” value came out at 1.9e-09 M; the “EC50 (M), killing of MOLM-13 cells by non-activated human T cells, E:T ratio 8:1” value was 1.4e-09 M; the “EC50 (M), killing of MOLM-13 cells by pre-activated human T cells, E:T ratio 1:2” value worked out at 1e-09 M. In test [1], the “EC50 (M), killing of MOLM-13 cells by pre-activated human T cells, E:T ratio 2:1” value was 6.8e-10 M and the “EC50 (M), killing of MOLM-13 cells by pre-activated human T cells, E:T ratio 8:1” value came to 2.4e-10 M. Moreover, in test [2], the Kd was 2.3 nM, the koff is 0.00019 s⁻¹ and the kon came out at 84000 M⁻¹ s⁻¹. Also, in test [3], the “% lysis, redirected human T cell mediated killing of KG1a cells, flow cytometry, E:T 10:1” value turned out to be 7% and the “EC50 (M), redirected human T cell mediated killing of KG1a cells, flow cytometry, E:T 10:1” value amounted to 2.4e-10 M. In test [4], the “% lysis, redirected cyno T cell mediated killing of KG1a cells, flow cytometry” value came out at 7% and the “EC50 (M), redirected cyno T cell mediated killing of KG1a cells, flow cytometry” value was 1.9e-10 M.

B2: T017000120 (bispecific antibody)
chain: EVQLVESGGGSVQAGGSLRLSCAASGYTIGPYCMGWFRQAPGKEREGVAAINMGGGITYYADSVKGRFTISQDNAKNTVYLLMNSLEPEDTAIYYCAADSTIYASYYECGHGLSTGGYGYDSWGQGTLVTVSSGGGGSGGGGSGGGGSGGGGSGGGGSGGGGSGGGGSEVQLVESGGGLVQAGGPLRLSCAASGRTFSSYVMGWFRQAPGKEREFVAAIYWSNGKTQYTDSVKGRFTISGDNAKNTVYLQMNSLNPEDTAVYYCVADKDETGFRTLPIAYDYWGQGTLVTVSSGGGGSGGGGSGGGGSGGGGSGGGGSGGGGSGGGGSEVQLVESGGGLVQPGGSLRLSCVASGDVHKINFLGWYRQAPGKEREKVAHISIGDQTDYADSAKGRFTISRDESKNMVYLQMNSLKPEDTAVYFCRAFSRIYPYDYWGQGTLVTVSS
notes: Multispecific Nanobody polypeptide expressed in Pichia; also called cAbLys3(D1E,Q5V,A6E,Q108L)-35GS-A0110055F03-35GS-T0170056G05-FLAG3-HIS6; not shown: C-terminal FLAG3-HIS6 tag
In the case of B2, in [5], the Kd was 170 nM, the koff was determined as 0.0025 s⁻¹ and the kon came out at 15000 M⁻¹ s⁻¹.

B3: T017000121 (bispecific antibody)
chain: EVQLVESGGGSVQAGGSLRLSCAASGYTIGPYCMGWFRQAPGKEREGVAAINMGGGITYYADSVKGRFTISQDNAKNTVYLLMNSLEPEDTAIYYCAADSTIYASYYECGHGLSTGGYGYDSWGQGTLVTVSSGGGGSGGGGSGGGGSGGGGSGGGGSGGGGSGGGGSEVQLVESGGGLVQAGGSLRLSCAASGITSKINDMGWYRQTPGNYREWVASITATGTTNYRDSVKGRFTISRDNAKSTVYLQMNSLKPEDTTVYYCNTFPPISNFWGQGTLVTVSSGGGGSGGGGSGGGGSGGGGSGGGGSGGGGSGGGGSEVQLVESGGGLVQPGGSLRLSCVASGDVHKINFLGWYRQAPGKEREKVAHISIGDQTDYADSAKGRFTISRDESKNMVYLQMNSLKPEDTAVYFCRAFSRIYPYDYWGQGTLVTVSS
notes: Multispecific Nanobody polypeptide expressed in Pichia; also called cAbLys3(D1E,Q5V,A6E,Q108L)-35GS-A0110056A10-35GS-T0170056G05-FLAG3-HIS6; not shown: C-terminal FLAG3-HIS6 tag
For B3, the IC50 in [6] is 26 nM; in test [7], 110 nM; in test [8] it was 23 nM. Further, the Kd in test [2] was 22 nM. In addition, in test [2], the koff was determined as 0.00086 s⁻¹. In addition, the kon in [2] came out at 40000 M⁻¹ s⁻¹.

B4: T017000113 (bispecific antibody)
chain: EVQLVESGGGLVQAGGPLRLSCAASGRTFSSYVMGWFRQAPGKEREFVAAIYWSNGKTQYTDSVKGRFTISGDNAKNTVYLQMNSLNPEDTAVYYCVADKDETGFRTLPIAYDYWGQGTLVTVSSGGGGSGGGGSGGGGSGGGGSGGGGSGGGGSGGGGSEVQLVESGGGSVQAGGSLRLSCAASGYTIGPYCMGWFRQAPGKEREGVAAINMGGGITYYADSVKGRFTISQDNAKNTVYLLMNSLEPEDTAIYYCAADSTIYASYYECGHGLSTGGYGYDSWGQGTLVTVSSGGGGSGGGGSGGGGSGGGGSGGGGSGGGGSGGGGSEVQLVESGGGLVQPGGSLRLSCVASGDVHKINFLGWYRQAPGKEREKVAHISIGDQTDYADSAKGRFTISRDESKNMVYLQMNSLKPEDTAVYFCRAFSRIYPYDYWGQGTLVTVSS
notes: Multispecific Nanobody polypeptide expressed in Pichia; also called A0110055F03-35GS-cAbLys3(D1E,Q5V,A6E,Q108L)-35GS-T0170056G05-FLAG3-HIS6; not shown: C-terminal FLAG3-HIS6 tag
Regarding B4, in test [2], the Kd is 160 nM, the koff worked out at 0.0032 s⁻¹ and the kon came out at 20000 M⁻¹ s⁻¹.

B5: T017000128 (bispecific antibody)
chain: DVQLVESGGGLVQPGGSLRLSCVASGDVHKINFLGWYRQAPGKEREKVAHISIGDQTDYADSAKGRFTISRDESKNMVYLQMNSLKPEDTAVYFCRAFSRIYPYDYWGQGTLVTVSSGGGGSGGGGSGGGGSGGGGSGGGGSGGGGSGGGGSEVQLVESGGGLVQAGGSLRLSCAASGITSKINDMGWYRQTPGNYREWVASITATGTTNYRDSVKGRFTISRDNAKSTVYLQMNSLKPEDTTVYYCNTFPPISNFWGQGTLVTVSSA
As for B5, in [9], the “% lysis, redirected cynomolgus T cell mediated killing of KG1a cells, flow cytometry, E:T 10:1” value came out at 32%; the “% lysis, redirected human T cell mediated killing of KG1a cells, flow cytometry, E:T 10:1” value came out at 55%; the “EC50 (M), redirected cynomolgus T cell mediated killing of KG1a cells, flow cytometry, E:T 10:1” value amounted to 2.8e-10 M; the “EC50 (M), redirected human T cell mediated killing of KG1a cells, flow cytometry, E:T 10:1” value was 3.1e-10 M.

B6: T017000134 (bispecific antibody)
chain: VQLVESGGGLVQAGGSLRLSCAASGITSKINDMGWYRQTPGNYREWVASITATGTTNYRDSVKGRFTISRDNAKSTVYLQMNSLKPEDTTVYYCNTFPPISNFWGQGTLVTVSSGGGGSGGGGSGGGGSGGGGSGGGGSGGGGSGGGGSEVQLVESGGGLVQPGGSLRLSCVASGDVHKINFLGWYRQAPGKEREKVAHISIGDQTDYADSAKGRFTISRDESKNMVYLQMNSLKPEDTAVYFCRAFSRIYPYDYWGQGTLVTVSSGGGGSGGGGSGGGGSGGGGSGGGGSGGGGSGGGGSEVQLVESGGGLVQAGGPLRLSCAASGRTFSSYVMGWFRQAPGKEREFVAAIYWSNGKTQYTDSVKGRFTISGDNAKNTVYLQMNSLNPEDTAVYYCVADKDETGFRTLPIAYDYWGQGTLVTVSSA
On to B6, for which, in [10], the “% lysis, redirected human T cell mediated killing of MOLM-13 cells, flow cytometry, E:T 10:1” value stood at 9% and the “EC50 (M), redirected human T cell mediated killing of MOLM-13 cells, flow cytometry, E:T 10:1” value is 3e-10 M.

B7: T017000115 (bispecific antibody)
chain: EVQLVESGGGLVQAGGSLRLSCAASGITSKINDMGWYRQTPGNYREWVASITATGTTNYRDSVKGRFTISRDNAKSTVYLQMNSLKPEDTTVYYCNTFPPISNFWGQGTLVTVSSGGGGSGGGGSGGGGSGGGGSGGGGSGGGGSGGGGSEVQLVESGGGSVQAGGSLRLSCAASGYTIGPYCMGWFRQAPGKEREGVAAINMGGGITYYADSVKGRFTISQDNAKNTVYLLMNSLEPEDTAIYYCAADSTIYASYYECGHGLSTGGYGYDSWGQGTLVTVSSGGGGSGGGGSGGGGSGGGGSGGGGSGGGGSGGGGSEVQLVESGGGLVQPGGSLRLSCVASGDVHKINFLGWYRQAPGKEREKVAHISIGDQTDYADSAKGRFTISRDESKNMVYLQMNSLKPEDTAVYFCRAFSRIYPYDYWGQGTLVTVSS
notes: Multispecific Nanobody polypeptide expressed in Pichia; also called A0110056A10-35GS-cAbLys3(D1E,Q5V,A6E,Q108L)-35GS-T0170056G05-FLAG3-HIS6; not shown: C-terminal FLAG3-HIS6 tag
Consider B7, for which, in test [5], the Kd was found to be 1.5 nM, the koff was 0.00051 s⁻¹ and the kon stood at 330000 M⁻¹ s⁻¹.
